# Results taken from US20240052059A1 (PUBLIC UNIVERSITY CORPORATION NARA MEDICAL UNIVERSITY, published 2024).
# B1: ACE910 (Emicizumab), anti-FIXa/FX bispecific antibody (Q499-z121/J327-z119/L404-k) (bispecific antibody, human IgG4 S228P, kappa)
# heavy 1: QVQLVESGGGLVQPGGSLRLSCAASGFTFSYYDIQWVRQAPGKGLEWVSSISPSGQSTYYRREVKGRFTISRDNSKNTLYLQMNSLRAEDTAVYYCARRTGREYGGGWYFDYWGQGTLVTVSSASTKGPSVFPLAPCSRSTSESTAALGCLVKDYFPEPVTVSWNSGALTSGVHTFPAVLQSSGLYSLSSVVTVPSSSLGTQTYTCNVDHKPSNTKVDKRVESKYGPPCPPCPAPEFLGGPSVFLFPPKPKDTLMISRTPEVTCVVVDVSQEDPEVQFNWYVDGVEVHNAKTKPREEQYNSTYRVVSVLTVLHQDWLNGKEYKCKVSNKGLPSSIEKTISKAKGQPREPQVYTLPPSQKEMTKNQVSLTCLVKGFYPSDIAVEWESNGQPENNYKTTPPVLDSDGSFFLYSKLTVDKSRWQEGNVFSCSVMHEALHNRYTQKSLSLSP
# heavy 2: QVQLVQSGSELKKPGASVKVSCKASGYTFTDNNMDWVRQAPGQGLEWMGDINTRSGGSIYNEEFQDRVIMTVDKSTDTAYMELSSLRSEDTATYHCARRKSYGYYLDEWGEGTLVTVSSASTKGPSVFPLAPCSRSTSESTAALGCLVKDYFPEPVTVSWNSGALTSGVHTFPAVLQSSGLYSLSSVVTVPSSSLGTQTYTCNVDHKPSNTKVDKRVESKYGPPCPPCPAPEFLGGPSVFLFPPKPKDTLMISRTPEVTCVVVDVSQEDPEVQFNWYVDGVEVHNAKTKPREEQYNSTYRVVSVLTVLHQDWLNGKEYKCKVSNKGLPSSIEKTISKAKGQPREPQVYTLPPSQEEMTKNQVSLTCLVKGFYPSDIAVEWESNGQPENNYKTTPPVLDSDGSFFLYSKLTVDKSRWQEGNVFSCSVMHEALHNHYTQESLSLSP
# light: DIQMTQSPSSLSASVGDRVTITCKASRNIERQLAWYQQKPGQAPELLIYQASRKESGVPDRFSGSRYGTDFTLTISSLQPEDIATYYCQQYSDPPLTFGGGTKVEIKRTVAAPSVFIFPPSDEQLKSGTASVVCLLNNFYPREAKVQWKVDNALQSGNSQESVTEQDSKDSTYSLSSTLTLSKADYEKHKVYACEVTHQGLSSPVTKSFNRGEC
# Molecular target: FIX remaining in commercially-available FIX-deficient human plasma (trace amount) (human, UniProt P00740 47-461)
# Sequence (P00740 47-461 limits assumed): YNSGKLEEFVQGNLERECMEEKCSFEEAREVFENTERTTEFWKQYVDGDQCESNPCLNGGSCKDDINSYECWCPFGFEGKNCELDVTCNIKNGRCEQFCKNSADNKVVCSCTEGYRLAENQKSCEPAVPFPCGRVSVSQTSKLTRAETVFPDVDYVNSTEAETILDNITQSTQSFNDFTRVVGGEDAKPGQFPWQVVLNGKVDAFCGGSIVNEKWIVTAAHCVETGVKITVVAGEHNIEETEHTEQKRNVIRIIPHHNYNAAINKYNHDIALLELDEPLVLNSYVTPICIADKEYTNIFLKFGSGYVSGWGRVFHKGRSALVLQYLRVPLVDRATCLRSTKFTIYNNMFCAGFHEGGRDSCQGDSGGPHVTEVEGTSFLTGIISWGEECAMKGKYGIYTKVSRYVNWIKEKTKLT
# Test: cell-based or functional assay
binder,measurement,value
B1,"APTT shortening ratio with 100 ug/mL ACE910 in FIX-deficient human plasma without FIX formulation, after further addition of anti-FIX-Gla antibody (150 ug/mL)",-3%
